We go through 1 molecule from patent US8809287B2, “Compositions and methods for altering Wnt autocrine signaling” (Icahn School of Medicine at Mount Sinai, priority 2004, dated 2014).

What all share (type): cell-based, human
Assay [1] deals with uncomplexed β-catenin. In words: Uncomplexed β-catenin in A1847 ovarian tumor cells. Conditions: FRP1-HA retrovirus. As to the method:
(§1) β-catenin levels were assessed using the GST-E-cadherin binding assay, which has been previously described (Bafico et al., (1998) Oncogene 16:2819-2825). Briefly, bacterially expressed GST-E-cadherin was purified with glutathione-Sepharose beads and incubated with 1 mg of each cell lysate. The GST-E-cadherin/[…]-catenin complex bound to the beads was recovered by centrifugation and analyzed by SDS-PAGE followed by immunoblotting. The uncomplexed β-catenin was detected using a monoclonal antibody to β-catenin (Transduction Laboratories). Unphosphorylated β-catenin was detected with a monoclonal antibody specific for β-catenin dephosphorylated at residues 27-37 (Alexis, Läufelfingen, Switzerland). FRP1-HA and DKK1-HA were detected with an anti-HA monoclonal antibody (Hybridoma Center, Mount Sinai School of Medicine, New York).
Breast (MDAMB231, ATCC No. HTB-26) and ovarian A1847 tumor cell lines were infected with vector alone or FRP 1-HA (described in Example 1) retroviruses and marker selected. […] Breast (MDAMB231) and ovarian A1847 tumor cell lines were analyzed for uncomplexed β-catenin and FRP 1-HA by immunoblot analysis with either an anti-β-catenin antibody (Transduction Laboratories) or an anti-HA antibody (Hybridoma Center, Mount Sinai School of Medicine, New York). […]

Assay [2] deals with uncomplexed β-catenin. Nature of the assay: Uncomplexed β-catenin in HCT116 wild type or mutant β-catenin allele clones. Conditions: FRP1-HA transfection. As to the method:
as §1
HCT116 parental cells and clones expressing either the wild type or mutant β-catenin allele were transfected with FRP1-HA and subjected to the GST-E-cadherin binding assay (described in Example 3) to examine the effect of FRP1 on uncomplexed β-catenin levels. Uncomplexed β-catenin was detected with anti-β-catenin antibody. The levels of FRP1 in the lysates were detected with an anti-HA antibody. […]

In assay [3] the test system is ID2. Nature of the assay: Northern blot of Id2 in HCT116 clones. Conditions: HCT116 wild type β-catenin allele clone. The source says: (§2) We next assessed the effects of FRP1 inhibition on the expression of Id2, Cyclin D1 and Myc, known targets of Wnt/β-catenin in colorectal cancer (Rockman et al. (2001) J. Biol. Chem. 276:45113-45119; Tetsu and McCormick (1999) Nature 398:422-426; He et al. (1998) Science 281:1509-1512). RNAs were extracted from HCT116 parental cells, and either wild type or mutant β-catenin allele containing clones transfected with either vector control or FRP1-HA using Triazol (Invitrogen). The RNAs were separated by (1%) agarose gel electrophoresis and transferred to a nylon membrane (Hybond®, Pharmacia). Probes were labeled by the Random Prime Labelling System method (Amersham Biosciences), and hybridization was performed overnight utilizing the Hybrisol I solution (Serologicals Corporation) according to the manufacturer's instructions. Normalization was performed utilizing a commercial human GADPH control probe (BD Biosciences Clontech).

Assay [4] concerns MYC. In words: Northern blot of Myc in HCT116 clone. Conditions: HCT116 wild type allele-containing clone.
Description: as §2

B1: FRP1: human secreted Frizzled Related Protein 1, Wnt antagonist; expressed from pBabe-derived retrovirus with carboxy-terminal HA tag (protein, UniProt Q8N474 32-314, looked up)
Secreted frizzled-related …: SEYDYVSFQSDIGPYQSGRFYTKPPQCVDIPADLRLCHNVGYKKMVLPNLLEHETMAEVKQQASSWVPLLNKNCHAGTQVFLCSLFAPVCLDRPIYPCRWLCEAVRDSCEPVMQFFGFYWPEMLKCDKFPEGDVCIAMTPPNATEASKPQGTTVCPPCDNELKSEAIIEHLCASEFALRMKIKEVKKENGDKKIVPKKKKPLKLGPIKKKDLKKLVLYLKNGADCPCHQLDNLSHHFLIMGRKVKSQYLLTAIHKWDKKNKEFKNFMKKMKNHECPTFQSVFK
modifications: C-terminal HA tag
notes: human secreted Frizzled Related Protein 1, Wnt antagonist; expressed from pBabe-derived retrovirus with carboxy-terminal HA tag
B1: the “constitutively up-regulated β-catenin” value in assay [1] is “inhibition of constitutively up-regulated β-catenin”. The “uncomplexed β-catenin levels” value in assay [2] (HCT116 clone containing only the mutant β-catenin allele) is recorded as “little if any effect”. Moreover, the β-catenin levels entry in assay [2] (HCT116 wild type β-catenin allele-containing clone) is listed as “dramatic reduction”. In assay [3], the Id2 transcript level entry is listed as “reduction”. Besides, in assay [4], the “expression of Myc” value was “dramatically inhibited”.
